Measured values as given in patent publication US20230375528.

Experiments:
[1] = target: ENO1 wild type (Enolase 1) (Homo sapiens) (UniProt P06733); assay: EMSA
[2] = target: ENO1down (ENO1-K343A) (Homo sapiens) (UniProt P06733); assay: EMSA; details: competition EMSA
ENO1down (ENO1-K343A) (Homo sapiens), sequence (P06733 whole entry K343A): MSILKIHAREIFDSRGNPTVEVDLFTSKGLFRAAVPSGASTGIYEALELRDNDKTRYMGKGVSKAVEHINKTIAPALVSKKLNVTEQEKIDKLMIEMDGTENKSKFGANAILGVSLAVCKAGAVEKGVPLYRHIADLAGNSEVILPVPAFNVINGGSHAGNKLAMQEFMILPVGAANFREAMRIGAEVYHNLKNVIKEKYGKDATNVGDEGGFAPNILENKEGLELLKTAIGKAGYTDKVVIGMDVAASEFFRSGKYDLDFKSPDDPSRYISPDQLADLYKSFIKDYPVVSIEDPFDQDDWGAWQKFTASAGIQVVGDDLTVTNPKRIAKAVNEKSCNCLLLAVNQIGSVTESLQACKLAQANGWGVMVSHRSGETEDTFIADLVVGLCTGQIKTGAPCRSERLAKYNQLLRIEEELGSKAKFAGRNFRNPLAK

ENO1 wild type (Enolase 1) (Homo sapiens), sequence (P06733 2-434): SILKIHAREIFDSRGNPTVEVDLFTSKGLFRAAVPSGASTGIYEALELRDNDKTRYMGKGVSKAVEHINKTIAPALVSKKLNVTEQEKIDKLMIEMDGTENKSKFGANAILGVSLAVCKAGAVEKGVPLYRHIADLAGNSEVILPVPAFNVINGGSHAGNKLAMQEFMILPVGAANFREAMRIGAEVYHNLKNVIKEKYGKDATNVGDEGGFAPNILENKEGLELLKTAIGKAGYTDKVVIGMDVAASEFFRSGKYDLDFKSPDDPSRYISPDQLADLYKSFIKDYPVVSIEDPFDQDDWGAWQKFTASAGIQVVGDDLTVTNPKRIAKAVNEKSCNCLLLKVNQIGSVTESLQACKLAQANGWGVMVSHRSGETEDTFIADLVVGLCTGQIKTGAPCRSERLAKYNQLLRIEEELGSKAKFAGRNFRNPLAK

Substance	Ki ([1]; competition EMSA with labelled PABPC1 target 35-mer probe) [nM]	Ki ([2]; about 5-10-fold decreased RNA binding vs wt) [nM]	Ki ([1]; competition EMSA with labelled PABPC1 target probe) [nM]	Ki [2] [nM]
PABPC1 5'UTR target 35-mer RNA	27	224	–	–
PABPC1 control 35-mer RNA (GC-matched, downstream of binding site)	–	–	2590	3260
